Reference: the MegaScale stability set (Tsuboyama et al. 2023)

B1: 2M8U (parent)
chain: TKAQVIEAFKVFDRDGNGYVTVDYLRKVLNELGDMMPADEIEEMIYEADPQNSGYVQYETFVGMLFL

Variants of: B1
Assay: folding stability dG (cDNA display proteolysis); higher = more stable
Settings: PBS, room temperature

Point of comparison: TKAQVIEAFKVFDRDGNGYVTVDYLRKVLNELGDMMWADEIEEMIYEADPQNSGYVQYETFVGMLFL [P37W], “folding stability dG” value 15.9 kJ/mol. Against it:
- TKAQVIEAFKVFDRDGNGYVTVDYLRKVLNELGDMCPADEIEEMIYEADPQNSGYVQYETFVGMLFL [M36C] — lower, 14.4 kJ/mol
- TKAQVIEAFKVFDRDGNGYVTVDYLRKVLNELGDMDPADEIEEMIYEADPQNSGYVQYETFVGMLFL [M36D] — lower, 11.4 kJ/mol
- TKAQVIEAFKVFDRDGNGYVTVDYLRKVLNELGDMEPADEIEEMIYEADPQNSGYVQYETFVGMLFL [M36E] — lower, 11.6 kJ/mol
- TKAQVIEAFKVFDRDGNGYVTVDYLRKVLNELGDMFPADEIEEMIYEADPQNSGYVQYETFVGMLFL [M36F] — higher, 17.7 kJ/mol
- TKAQVIEAFKVFDRDGNGYVTVDYLRKVLNELGDMGPADEIEEMIYEADPQNSGYVQYETFVGMLFL [M36G] — lower, 14.5 kJ/mol
- TKAQVIEAFKVFDRDGNGYVTVDYLRKVLNELGDMHPADEIEEMIYEADPQNSGYVQYETFVGMLFL [M36H] — higher, 16.7 kJ/mol
- TKAQVIEAFKVFDRDGNGYVTVDYLRKVLNELGDMIPADEIEEMIYEADPQNSGYVQYETFVGMLFL [M36I] — lower, 15.7 kJ/mol
- TKAQVIEAFKVFDRDGNGYVTVDYLRKVLNELGDMKPADEIEEMIYEADPQNSGYVQYETFVGMLFL [M36K] — lower, 15.3 kJ/mol
- TKAQVIEAFKVFDRDGNGYVTVDYLRKVLNELGDMLPADEIEEMIYEADPQNSGYVQYETFVGMLFL [M36L] — lower, 15.6 kJ/mol
- TKAQVIEAFKVFDRDGNGYVTVDYLRKVLNELGDMNPADEIEEMIYEADPQNSGYVQYETFVGMLFL [M36N] — lower, 14 kJ/mol
- TKAQVIEAFKVFDRDGNGYVTVDYLRKVLNELGDMPPADEIEEMIYEADPQNSGYVQYETFVGMLFL [M36P] — lower, 15.2 kJ/mol
- TKAQVIEAFKVFDRDGNGYVTVDYLRKVLNELGDMQPADEIEEMIYEADPQNSGYVQYETFVGMLFL [M36Q] — lower, 13.3 kJ/mol
- TKAQVIEAFKVFDRDGNGYVTVDYLRKVLNELGDMRPADEIEEMIYEADPQNSGYVQYETFVGMLFL [M36R] — lower, 15.1 kJ/mol
- TKAQVIEAFKVFDRDGNGYVTVDYLRKVLNELGDMSPADEIEEMIYEADPQNSGYVQYETFVGMLFL [M36S] — lower, 14.3 kJ/mol
- TKAQVIEAFKVFDRDGNGYVTVDYLRKVLNELGDMTPADEIEEMIYEADPQNSGYVQYETFVGMLFL [M36T] — lower, 15.3 kJ/mol
- TKAQVIEAFKVFDRDGNGYVTVDYLRKVLNELGDMVPADEIEEMIYEADPQNSGYVQYETFVGMLFL [M36V] — the same, 15.9 kJ/mol
- TKAQVIEAFKVFDRDGNGYVTVDYLRKVLNELGDMWPADEIEEMIYEADPQNSGYVQYETFVGMLFL [M36W] — higher, 18.5 kJ/mol
- TKAQVIEAFKVFDRDGNGYVTVDYLRKVLNELGDMYPADEIEEMIYEADPQNSGYVQYETFVGMLFL [M36Y] — lower, 14.9 kJ/mol
- TKAQVIEAFKVFDRDGNGYVTVDYLRKVLNELGDMMAADEIEEMIYEADPQNSGYVQYETFVGMLFL [P37A] — lower, 13 kJ/mol
- TKAQVIEAFKVFDRDGNGYVTVDYLRKVLNELGDMMCADEIEEMIYEADPQNSGYVQYETFVGMLFL [P37C] — lower, 14.6 kJ/mol
- TKAQVIEAFKVFDRDGNGYVTVDYLRKVLNELGDMMDADEIEEMIYEADPQNSGYVQYETFVGMLFL [P37D] — lower, 13.6 kJ/mol
- TKAQVIEAFKVFDRDGNGYVTVDYLRKVLNELGDMMEADEIEEMIYEADPQNSGYVQYETFVGMLFL [P37E] — lower, 14 kJ/mol
- TKAQVIEAFKVFDRDGNGYVTVDYLRKVLNELGDMMFADEIEEMIYEADPQNSGYVQYETFVGMLFL [P37F] — lower, 14.9 kJ/mol
- TKAQVIEAFKVFDRDGNGYVTVDYLRKVLNELGDMMGADEIEEMIYEADPQNSGYVQYETFVGMLFL [P37G] — lower, 14.1 kJ/mol
- TKAQVIEAFKVFDRDGNGYVTVDYLRKVLNELGDMMHADEIEEMIYEADPQNSGYVQYETFVGMLFL [P37H] — lower, 14.5 kJ/mol
- TKAQVIEAFKVFDRDGNGYVTVDYLRKVLNELGDMMIADEIEEMIYEADPQNSGYVQYETFVGMLFL [P37I] — lower, 14.3 kJ/mol
- TKAQVIEAFKVFDRDGNGYVTVDYLRKVLNELGDMMKADEIEEMIYEADPQNSGYVQYETFVGMLFL [P37K] — lower, 15.5 kJ/mol
- TKAQVIEAFKVFDRDGNGYVTVDYLRKVLNELGDMMLADEIEEMIYEADPQNSGYVQYETFVGMLFL [P37L] — lower, 14.5 kJ/mol
- TKAQVIEAFKVFDRDGNGYVTVDYLRKVLNELGDMMMADEIEEMIYEADPQNSGYVQYETFVGMLFL [P37M] — lower, 13.8 kJ/mol
- TKAQVIEAFKVFDRDGNGYVTVDYLRKVLNELGDMMNADEIEEMIYEADPQNSGYVQYETFVGMLFL [P37N] — lower, 15.1 kJ/mol
- TKAQVIEAFKVFDRDGNGYVTVDYLRKVLNELGDMMQADEIEEMIYEADPQNSGYVQYETFVGMLFL [P37Q] — lower, 14.4 kJ/mol
- TKAQVIEAFKVFDRDGNGYVTVDYLRKVLNELGDMMRADEIEEMIYEADPQNSGYVQYETFVGMLFL [P37R] — lower, 14.4 kJ/mol
- TKAQVIEAFKVFDRDGNGYVTVDYLRKVLNELGDMMSADEIEEMIYEADPQNSGYVQYETFVGMLFL [P37S] — lower, 13.9 kJ/mol
- TKAQVIEAFKVFDRDGNGYVTVDYLRKVLNELGDMMTADEIEEMIYEADPQNSGYVQYETFVGMLFL [P37T] — lower, 13.9 kJ/mol
- TKAQVIEAFKVFDRDGNGYVTVDYLRKVLNELGDMMVADEIEEMIYEADPQNSGYVQYETFVGMLFL [P37V] — lower, 14 kJ/mol
- TKAQVIEAFKVFDRDGNGYVTVDYLRKVLNELGDMMYADEIEEMIYEADPQNSGYVQYETFVGMLFL [P37Y] — lower, 14.4 kJ/mol
- TKAQVIEAFKVFDRDGNGYVTVDYLRKVLNELGDMMPCDEIEEMIYEADPQNSGYVQYETFVGMLFL [A38C] — lower, 14.7 kJ/mol
- TKAQVIEAFKVFDRDGNGYVTVDYLRKVLNELGDMMPDDEIEEMIYEADPQNSGYVQYETFVGMLFL [A38D] — lower, 13.9 kJ/mol
- TKAQVIEAFKVFDRDGNGYVTVDYLRKVLNELGDMMPEDEIEEMIYEADPQNSGYVQYETFVGMLFL [A38E] — lower, 14.4 kJ/mol
